Results as given in PMC4122339, “Carbonic Anhydrase Generates CO2 and H^+ That Drive Spider Silk Formation Via Opposite Effects on the Terminal Domains” (PLoS Biology, 2014).

Target: the molecule itself
Assay: NMR structure; solution NMR at 298 K; 1 mM protein in 20 mM sodium phosphate pH 6.8, 20 mM NaCl; intermolecular NOEs from a 13C/15N-filtered NOESY on a 50% labelled / 50% unlabelled sample, used as distance restraints with an upper limit of 5 Å

B1: Araneus ventricosus minor ampullate spidroin (MiSp) C-terminal domain, truncated construct (residues 31-150 of the 150-residue C-terminal part) (domain or fragment)
chain: VTSGGYGYGTSAAAGAGVAAGSYAGAVNRLSSAEAASRVSSNIAAIASGGASALPSVISNIYSGVVASGVSSNEALIQALLELLSALVHVLSSASIGNVSSVGVDSTLNVVQDSVGQYVG
modifications: uniformly 13C/15N-labelled (a mixed sample of 50% 13C/15N-labelled and 50% unlabelled protein was used for the intermolecular NOEs)
notes: C-terminal domain of minor ampullate spidroin (MiSp), Araneus ventricosus; residues 31-150 of the printed 150-residue construct; PDB 2MFZ would settle this; also called A. ventricosus MiSp CT; source: E. coli BL21 (DE3), minimal medium, purified (Ni-NTA, thrombin cleavage, Ni-NTA); not shown: His tag-Thioredoxin-His tag, N-terminal, cleaved
B1: binds.
